Measured values taken from US20260097129A1, “ANTIBODY-DRUG CONJUGATE COMPRISING DRUG AND ANTIBODY SPECIFICALLY BINDING TO GRP94 OR ANTIGEN-BINDING FRAGMENT THEREOF” (KOOKMIN UNIVERSITY INDUSTRY ACADEMY COOPERATION FOUNDATION, priority 2022, published 2026).

B1: K101.1: GRP94-specific IgG antibody, CDRs SEQ ID NO: 1-6, VH SEQ ID NO: 7, VL SEQ ID NO: 8 (antibody, V domains shown)
VH: EVQLLESGGGLVQPGGSLRLSCAASGFTFSNYSMSWVRQAPGKGLEWVSGIYYGSGNKYYADSVKGRFTISRDNSKNTLYLQMNSLRAEDTAVYYCAKNLASFDYWGQGTLVTVSS
VL: QSVLTQPPSASGTPGQRVTISCSGSSSNIGSNSVNWYQQLPGTAPKLLIYSNSHRPSGVPDRFSGSKSGTSASLAISGLRSEDEADYYCGTWDSSLSGYVFGGGTKLTVL
B2: K101.1-Sec-DM1 (conjugate)
heavy: B1 VH
light: B1 VL
modifications: non-natural residues; left off: small tags and cut ends; large carriers

Assays:
HCT116 cells = assay: Antibody internalization, FabFluor-pH Red labeling, Incucyte live cell imaging; assay type: cell-based, human
Experimental: Antibody internalization in HCT116 cells was measured using the FabFluor-pH Red Antibody Labeling Reagent (Sartorius, Gottingen, Germany) according to the manufacturer's instructions. […] HCT116 cells were seeded at a density of 10,000 cells/well in a 96-well culture plate and allowed to adhere overnight. The control IgG, K101.1, or trastuzumab (MedChemExpress, Princeton, NJ, USA) were individually labeled with the human FabFluor-pH Red antibody labeling reagent at a 1:3 molar ratio in PBS and incubated for 15 minutes. The labeled antibodies were added to the cell culture medium at a final concentration of 2 μg/ml. The plate was transferred to the Incucyte SX1 live cell analysis system (Sartorius) and images were captured with a 10× objective lens for 12 hours. The fluorescence intensity was individually measured for each image.
The internalization of antibodies in HCT116 cells was measured using the FabFluor-pH Red antibody labeling reagent (Sartorius, Göttingen, Germany) according to the manufacturer's instructions. […] However, after internalization of the reagent-labeled antibody, the fluorescence intensity increases under the acidic conditions inside endosomes and lysosomes. HCT116 cells were seeded at a density of 10,000 cells per well in a 96-well culture plate and allowed to attach overnight. […] Fluorescence intensity was then measured.

HT29 = assay: Cell proliferation assay, real-time live cell imaging (Incucyte); assay type: cell-based, human; conditions: 133 nM K101.1, 33 nM and 133 nM K101.1-Sec-DM1, 62 hours, FIG. 9
Experimental: (§1) To investigate the effect of K101.1-Sec-DM1 on CRC cell growth in vitro, 1×10^4 HT29, LoVo, or 5×10^3 HCT116 CRC cells were seeded in the wells of a 96-well plate and incubated at 37° C. for 16 hours. The cells were then treated with either 133 nM of K101.1 or 33 nM and 133 nM of K101.1-Sec-DM1, with or without the presence of the drug. Cell growth was measured for 62 hours using the Incucyte SX1 live cell analysis instrument (Sartorius).

LoVo = assay: as above; assay type: cell-based, human; conditions: 133 nM K101.1, 33 nM and 133 nM K101.1-Sec-DM1, 62 hours, FIG. 9
Experimental: as §1

HCT116 = assay: as above; assay type: cell-based, human; conditions: 133 nM K101.1, 33 nM and 133 nM K101.1-Sec-DM1, 62 hours, FIG. 9
Experimental: as §1

rmGRP94 = rmGRP94 (Mus musculus, UniProt P08113); assay: ELISA binding to immobilized rmGRP94; conditions: immobilized rmGRP94, FIG. 8
Sequence of rmGRP94 (P08113 22-802): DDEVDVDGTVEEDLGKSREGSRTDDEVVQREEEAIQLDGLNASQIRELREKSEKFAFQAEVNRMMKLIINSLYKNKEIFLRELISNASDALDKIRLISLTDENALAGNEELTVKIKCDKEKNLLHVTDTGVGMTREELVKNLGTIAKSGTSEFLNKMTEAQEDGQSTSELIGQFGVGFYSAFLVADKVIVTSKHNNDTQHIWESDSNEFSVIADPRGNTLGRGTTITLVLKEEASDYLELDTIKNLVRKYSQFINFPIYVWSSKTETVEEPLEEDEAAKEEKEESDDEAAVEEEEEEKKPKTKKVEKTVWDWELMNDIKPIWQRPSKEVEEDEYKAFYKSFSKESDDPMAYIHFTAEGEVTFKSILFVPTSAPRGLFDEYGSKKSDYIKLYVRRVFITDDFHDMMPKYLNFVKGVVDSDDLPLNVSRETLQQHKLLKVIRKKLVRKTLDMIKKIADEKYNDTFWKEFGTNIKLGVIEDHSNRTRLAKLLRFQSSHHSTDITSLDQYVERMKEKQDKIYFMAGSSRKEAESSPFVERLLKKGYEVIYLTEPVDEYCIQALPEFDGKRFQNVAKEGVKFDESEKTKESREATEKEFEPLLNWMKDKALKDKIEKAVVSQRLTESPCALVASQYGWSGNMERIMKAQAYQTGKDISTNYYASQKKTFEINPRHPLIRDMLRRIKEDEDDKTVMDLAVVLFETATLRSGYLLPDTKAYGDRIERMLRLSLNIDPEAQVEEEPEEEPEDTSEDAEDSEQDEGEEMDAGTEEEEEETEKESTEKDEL

rhGRP94 = rhGRP94 (Homo sapiens, UniProt P14625); assay: ELISA binding to immobilized rhGRP94; conditions: immobilized rhGRP94, FIG. 8
Sequence of rhGRP94 (P14625 22-803): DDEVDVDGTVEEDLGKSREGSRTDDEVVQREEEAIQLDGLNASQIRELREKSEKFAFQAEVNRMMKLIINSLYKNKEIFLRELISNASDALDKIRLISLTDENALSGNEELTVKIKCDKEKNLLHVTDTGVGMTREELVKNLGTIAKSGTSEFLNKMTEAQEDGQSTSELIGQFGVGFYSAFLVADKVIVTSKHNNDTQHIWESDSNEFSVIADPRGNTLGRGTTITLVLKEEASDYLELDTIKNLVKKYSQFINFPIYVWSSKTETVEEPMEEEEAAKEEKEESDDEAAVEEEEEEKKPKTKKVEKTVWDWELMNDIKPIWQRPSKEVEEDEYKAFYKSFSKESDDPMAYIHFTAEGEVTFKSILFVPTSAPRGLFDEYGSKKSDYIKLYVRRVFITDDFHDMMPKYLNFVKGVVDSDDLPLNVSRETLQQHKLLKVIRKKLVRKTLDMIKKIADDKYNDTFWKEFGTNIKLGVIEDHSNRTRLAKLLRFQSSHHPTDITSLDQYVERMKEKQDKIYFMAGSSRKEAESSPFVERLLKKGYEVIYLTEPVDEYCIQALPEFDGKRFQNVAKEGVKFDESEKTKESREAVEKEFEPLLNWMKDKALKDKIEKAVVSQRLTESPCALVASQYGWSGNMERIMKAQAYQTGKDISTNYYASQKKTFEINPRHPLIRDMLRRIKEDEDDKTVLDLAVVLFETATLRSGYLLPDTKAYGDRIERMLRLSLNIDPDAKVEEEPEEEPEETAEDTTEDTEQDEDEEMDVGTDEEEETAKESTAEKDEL
Experimental: (§2) A 96-well microplate was coated with 0.1 μg of rhGRP94 and incubated at 4° C. for 16 hours. After blocking the plate with 3% (w/v) BSA in PBS at 37° C. for 2 hours, the plate was incubated with 20 µg/mL of K101.1-Sec (SelT) at 37° C. for 2 hours. After washing the plate three times with PBS-T, it was incubated with HRP-conjugated anti-human Fc secondary antibody (1:5,000; Invitrogen) or HRP-conjugated anti-HA antibody (1:3,000; Bethyl Laboratories, Montgomery, TX, USA) at 37° C. for 1 hour. The color reaction was initiated with 100 μL of TMB substrate solution and terminated with 2N H2SO4 solution. Optical density was measured at 450 nm using a microplate reader.
as §2, with “blocking” for “blocking the plate”, “20 μg/mL” for “20 µg/mL”, “washing” for “washing the plate”, “PBS-T, the plate” for “PBS-T, it”, “Invitrogen)” for “Invitrogen) or HRP-conjugated anti-HA antibody (1:3,000; Bethyl Laboratories, Montgomery, TX, USA)”

Molecule	antibody internalization (FabFluor fluorescence intensity) (HCT116 cells; labeled antibody 2 μg/mL, imaged for 10 hours, Example 2, FIG. 10)	antibody internalization (FabFluor red fluorescence intensity) (HCT116 cells; labeled antibody 2 μg/ml, imaged for 12 hours, Example 1, FIG. 1)	effect on CRC cell growth (HT29)	effect on CRC cell growth (LoVo)	effect on CRC cell growth (HCT116)	antigen binding by ELISA compared with parent antibody K101.1 (rmGRP94)	antigen binding by ELISA compared with parent antibody K101.1 (rhGRP94)
B1	exhibited stronger internalization than trastuzumab	promoted internalization more efficiently than trastuzumab	little to no effect	little to no effect	little to no effect	–	–
B2	–	–	significantly and more strongly inhibited the growth	significantly and more strongly inhibited the growth	significantly and more strongly inhibited the growth	no significant difference in antigen binding	no significant difference in antigen binding
